B1: Gamma-crystallin S, residues 96 to 176; numbered along this chain, P22914 (parent)
chain: IQIFEKGDFSGQMYETTEDCPSIMEQFHMREIHSCKVLEGVWIFYELPNYRGRQYLLDKKEYRKPIDWGAASPAVQSFRRI

Variants of: B1
Assay: abundance fitness (aPCA) (normalised: wild type 0, dead -1); higher = more abundant; growth selection in yeast, the domain comes from the species named
Settings: Homo sapiens

Abundance fitness: each site, then its substitutions
M29: T 0.109 | N 0.226 | I -0.015 | L -0.084 | Q 0.048 | V 0.034
I23: M -0.041 | Q -0.398 | R -0.28 | V 0.004 | N -0.041 | G -0.142 | P 0.02 | A 0 | H -0.201 | S -0.038 | F 0.001 | W 0.014 | C -0.031 | T -0.033 | L -0.152 | E -0.945 | K -0.588 | Y 0.024
C20: R -0.235 | Q -0.002 | E -0.144 | D -0.754 | M -0.008 | N -0.134 | T -0.086 | I 0.023 | F -0.222 | S -0.054 | P -1.04 | L -0.142 | H -0.398 | G -0.352 | W -0.065 | A -0.004 | Y -0.035 | V -0.087 | K -0.027
H28: N 0.009 | A 0.045 | E 0.006 | F 0.332 | M -0.05 | I 0.079 | P 0.137 | Q 0.037 | C 0.031 | G 0.048 | S 0.042 | Y 0.035 | T 0.036 | L 0.035 | W 0.05 | V -0.011 | K 0.07 | R -0.047 | D 0.027
M24: W 0.115 | Y -0.095 | R -0.005 | D -0.11 | C -0.016 | H -0.099 | L 0.002 | E -0.052 | T 0.007 | I -0.017 | Q -0.097 | P -0.099 | S -0.088 | A -0.054 | K 0.335
H33: I -0.002 | Y 0.02 | R -0.047 | W 0.062 | M 0.027 | D 0.077 | V -0.013 | Q -0.023 | T 0.06 | N -0.01 | E 0.054 | A -0.047 | C 0.035 | S 0.03 | F 0.093 | P 0.057 | L -0.021 | K -0.12 | G 0.012
E18: Q 0.009 | T -0.046 | S 0.016 | P -0.067 | G 0.038 | I 0.079 | M -0.066 | H -0.039 | L -0.021 | W 0.014 | N 0.072 | K 0.017 | A -0.087 | C 0.006 | V 0.002 | Y -0.032 | D -0.153 | F -0.007 | R -0.028
T17: F -0.007 | R -0.012 | I 0.037 | D -0.051 | V -0.031 | P 0.075 | Q -0.005 | S -0.068 | E -0.069 | C 0.027 | G -0.013 | Y -0.352 | N -0.02 | L 0.022 | M -0.059 | A 0.022 | W 0.021 | K 0.074
Q26: V 0.009 | P -0.021 | Y 0.082 | M -0.04 | F -0.033 | R 0.009 | K -0.079 | A -0.018 | W 0 | E 0.079 | I -0.065 | S -0.035 | D 0.073 | T -0.047 | C -0.123 | G 0.044
P21: T -0.012 | S 0.019 | I -0.053 | V 0.009 | K -0.016 | E -0.028 | Q 0.023 | L -0.002 | W 0.037 | N -0.015 | C -0.011 | D -0.063 | A -0.043 | R -0.106 | F 0.075 | G 0.004 | Y -0.109 | M -0.057
